Assay results published in FireProtDB (doi:10.1074/jbc.m110728200).

B1: Lysozyme C, P61626 (parent)
chain: MKALIVLGLVLLSVTVQGKVFERCELARTLKRLGMDGYRGISLANWMCLAKWESGYNTRATNYNAGDRSTDYGIFQINSRYWCNDGKTPGAVNACHLSCSALLQDNIADAVACAKRVVRDPQGIRAWVAWRNRCQNRDVRQYVQGCGV

Variants of: B1
Conditions: Homo sapiens; pH 2.61; Thermal; DSC; Gly-HCl 0.05 M; structure 1LZ1; whole UniProt chain shown

Variant	Tm [°C]	unfolding enthalpy (calorimetric) [kcal/mol]	unfolding enthalpy (van 't Hoff) [kcal/mol]
MKALIVLGLVLLSVTVQGKVFERCELARTLKRLGMDGYRGISLANWMCLAKWESGYNTRATNYNAGDRSTDYGIFQINSRYWCNDGKTPGASNACHLSCSALLQDNIADAVACAKRVVRDPQGIRAWVAWRNRCQNRDVRQYVQGCGV	62.1	105	110

Same assay, conditions: Homo sapiens; pH 2.7; 64.9 °C; Thermal; DSC; Gly-HCl 0.05 M; structure 1LZ1; whole UniProt chain shown

Variant	ddG of mutation (higher = less stable) [kcal/mol]	heat capacity change of unfolding [kcal/mol/K]	unfolding enthalpy (calorimetric) [kcal/mol]
MKALIVLGLVLLSVTVQGKVFERCELARTLKRLGMDGYRGISLANWMCLAKWESGYNTRATNYNAGDRSTDYGIFQINSRYWCNDGKTPGASNACHLSCSALLQDNIADAVACAKRVVRDPQGIRAWVAWRNRCQNRDVRQYVQGCGV	0.38	1.22	108
MKALIVLGLVLLSVTVQGKVFERCELARTLKRLGMDGYRGISLANWMCLAKWESGYNTRATNYNAGDRSTDYGIFQINSRYWCNDGKTPGADNACHLSCSALLQDNIADAVACAKRVVRDPQGIRAWVAWRNRCQNRDVRQYVQGCGV	0.43	1.58	107

Same assay, conditions: Homo sapiens; pH 2.7; Thermal; DSC; Gly-HCl 0.05 M; structure 1LZ1; whole UniProt chain shown

Variant	Tm [°C]	change of melting temperature, mutant - wild type (higher = more stable) [°C]	heat capacity change of unfolding [kcal/mol/K]	unfolding enthalpy (calorimetric) [kcal/mol]
MKALIVLGLVLLSVTVQGKVFERCELARTLKRLGMDGYRGISLANWMCLAKWESGYNTRATNYNAGDRSTDYGIFQINSRYWCNDGKTPGASNACHLSCSALLQDNIADAVACAKRVVRDPQGIRAWVAWRNRCQNRDVRQYVQGCGV	64.9	0	1.22	108
MKALIVLGLVLLSVTVQGKVFERCELARTLKRLGMDGYRGISLANWMCLAKWESGYNTRATNYNAGDRSTDYGIFQINSRYWCNDGKTPGADNACHLSCSALLQDNIADAVACAKRVVRDPQGIRAWVAWRNRCQNRDVRQYVQGCGV	63.5	-1.4	–	–
MKALIVLGLVLLSVTVQGKVFERCELARTLKRLGMDGYRGISLANWMCLAKWESGYNTRATNYNAGDRSTDYGIFQINSRYWCNDGKTPGAVNACHLSCSALLQDNIADAVACAKRVVRDPQGIRAWDAWRNRCQNRDVRQYVQGCGV	65.4	0.5	–	–
MKALIVLGLVLLSVTVQGKVFERCELARTLKRLGMDGYRGISLANWMCLAKWESGYNTRATNYNAGDRSTDYGIFQINSRYWCNDGKTPGAVNACHLSCSALLQDNIADAVACAKRVVRDPQGIRAWNAWRNRCQNRDVRQYVQGCGV	65.1	0.2	–	–

Same assay, conditions: Homo sapiens; pH 2.83; Thermal; DSC; Gly-HCl 0.05 M; structure 1LZ1; whole UniProt chain shown

Variant	Tm [°C]	unfolding enthalpy (calorimetric) [kcal/mol]	unfolding enthalpy (van 't Hoff) [kcal/mol]
MKALIVLGLVLLSVTVQGKVFERCELARTLKRLGMDGYRGISLANWMCLAKWESGYNTRATNYNAGDRSTDYGIFQINSRYWCNDGKTPGASNACHLSCSALLQDNIADAVACAKRVVRDPQGIRAWVAWRNRCQNRDVRQYVQGCGV	66	109	115
MKALIVLGLVLLSVTVQGKVFERCELARTLKRLGMDGYRGISLANWMCLAKWESGYNTRATNYNAGDRSTDYGIFQINSRYWCNDGKTPGADNACHLSCSALLQDNIADAVACAKRVVRDPQGIRAWVAWRNRCQNRDVRQYVQGCGV	65.9	107	115
MKALIVLGLVLLSVTVQGKVFERCELARTLKRLGMDGYRGISLANWMCLAKWESGYNTRATNYNAGDRSTDYGIFQINSRYWCNDGKTPGAVNACHLSCSALLQDNIADAVACAKRVVRDPQGIRAWNAWRNRCQNRDVRQYVQGCGV	67.2	113	115

Same assay, conditions: Homo sapiens; pH 3.28; Thermal; DSC; Gly-HCl 0.05 M; structure 1LZ1; whole UniProt chain shown

Variant	Tm [°C]	unfolding enthalpy (calorimetric) [kcal/mol]	unfolding enthalpy (van 't Hoff) [kcal/mol]
MKALIVLGLVLLSVTVQGKVFERCELARTLKRLGMDGYRGISLANWMCLAKWESGYNTRATNYNAGDRSTDYGIFQINSRYWCNDGKTPGASNACHLSCSALLQDNIADAVACAKRVVRDPQGIRAWVAWRNRCQNRDVRQYVQGCGV	72.2	117	122

Same assay, conditions: Homo sapiens; pH 2.6; Thermal; DSC; Gly-HCl 0.05 M; structure 1LZ1; whole UniProt chain shown

Variant	Tm [°C]	unfolding enthalpy (calorimetric) [kcal/mol]	unfolding enthalpy (van 't Hoff) [kcal/mol]
MKALIVLGLVLLSVTVQGKVFERCELARTLKRLGMDGYRGISLANWMCLAKWESGYNTRATNYNAGDRSTDYGIFQINSRYWCNDGKTPGADNACHLSCSALLQDNIADAVACAKRVVRDPQGIRAWVAWRNRCQNRDVRQYVQGCGV	61.7	103	110

Same assay, conditions: Homo sapiens; pH 2.98; Thermal; DSC; Gly-HCl 0.05 M; structure 1LZ1; whole UniProt chain shown

Variant	Tm [°C]	unfolding enthalpy (calorimetric) [kcal/mol]	unfolding enthalpy (van 't Hoff) [kcal/mol]
MKALIVLGLVLLSVTVQGKVFERCELARTLKRLGMDGYRGISLANWMCLAKWESGYNTRATNYNAGDRSTDYGIFQINSRYWCNDGKTPGADNACHLSCSALLQDNIADAVACAKRVVRDPQGIRAWVAWRNRCQNRDVRQYVQGCGV	68.1	112	118

Same assay, conditions: Homo sapiens; pH 3.1; Thermal; DSC; Gly-HCl 0.05 M; structure 1LZ1; whole UniProt chain shown

Variant	Tm [°C]	unfolding enthalpy (calorimetric) [kcal/mol]	unfolding enthalpy (van 't Hoff) [kcal/mol]
MKALIVLGLVLLSVTVQGKVFERCELARTLKRLGMDGYRGISLANWMCLAKWESGYNTRATNYNAGDRSTDYGIFQINSRYWCNDGKTPGADNACHLSCSALLQDNIADAVACAKRVVRDPQGIRAWVAWRNRCQNRDVRQYVQGCGV	70.1	115	123

Same assay, conditions: Homo sapiens; pH 3.25; Thermal; DSC; Gly-HCl 0.05 M; structure 1LZ1; whole UniProt chain shown

Variant	Tm [°C]	unfolding enthalpy (calorimetric) [kcal/mol]	unfolding enthalpy (van 't Hoff) [kcal/mol]
MKALIVLGLVLLSVTVQGKVFERCELARTLKRLGMDGYRGISLANWMCLAKWESGYNTRATNYNAGDRSTDYGIFQINSRYWCNDGKTPGADNACHLSCSALLQDNIADAVACAKRVVRDPQGIRAWVAWRNRCQNRDVRQYVQGCGV	72.5	120	127

Same assay, conditions: Homo sapiens; pH 2.63; Thermal; DSC; Gly-HCl 0.05 M; structure 1LZ1; whole UniProt chain shown

Variant	Tm [°C]	unfolding enthalpy (calorimetric) [kcal/mol]	unfolding enthalpy (van 't Hoff) [kcal/mol]
MKALIVLGLVLLSVTVQGKVFERCELARTLKRLGMDGYRGISLANWMCLAKWESGYNTRATNYNAGDRSTDYGIFQINSRYWCNDGKTPGAVNACHLSCSALLQDNIADAVACAKRVVRDPQGIRAWDAWRNRCQNRDVRQYVQGCGV	63.9	90.3	108

Same assay, conditions: Homo sapiens; pH 2.84; Thermal; DSC; Gly-HCl 0.05 M; structure 1LZ1; whole UniProt chain shown

Variant	Tm [°C]	unfolding enthalpy (calorimetric) [kcal/mol]	unfolding enthalpy (van 't Hoff) [kcal/mol]
MKALIVLGLVLLSVTVQGKVFERCELARTLKRLGMDGYRGISLANWMCLAKWESGYNTRATNYNAGDRSTDYGIFQINSRYWCNDGKTPGAVNACHLSCSALLQDNIADAVACAKRVVRDPQGIRAWDAWRNRCQNRDVRQYVQGCGV	67.9	96.8	112

Same assay, conditions: Homo sapiens; pH 3; Thermal; DSC; Gly-HCl 0.05 M; structure 1LZ1; whole UniProt chain shown

Variant	Tm [°C]	unfolding enthalpy (calorimetric) [kcal/mol]	unfolding enthalpy (van 't Hoff) [kcal/mol]
MKALIVLGLVLLSVTVQGKVFERCELARTLKRLGMDGYRGISLANWMCLAKWESGYNTRATNYNAGDRSTDYGIFQINSRYWCNDGKTPGAVNACHLSCSALLQDNIADAVACAKRVVRDPQGIRAWDAWRNRCQNRDVRQYVQGCGV	70.4	103	120

Same assay, conditions: Homo sapiens; pH 3.34; Thermal; DSC; Gly-HCl 0.05 M; structure 1LZ1; whole UniProt chain shown

Variant	Tm [°C]	unfolding enthalpy (calorimetric) [kcal/mol]	unfolding enthalpy (van 't Hoff) [kcal/mol]
MKALIVLGLVLLSVTVQGKVFERCELARTLKRLGMDGYRGISLANWMCLAKWESGYNTRATNYNAGDRSTDYGIFQINSRYWCNDGKTPGAVNACHLSCSALLQDNIADAVACAKRVVRDPQGIRAWDAWRNRCQNRDVRQYVQGCGV	75.5	108	125

Same assay, conditions: Homo sapiens; pH 2.64; Thermal; DSC; Gly-HCl 0.05 M; structure 1LZ1; whole UniProt chain shown

Variant	Tm [°C]	unfolding enthalpy (calorimetric) [kcal/mol]	unfolding enthalpy (van 't Hoff) [kcal/mol]
MKALIVLGLVLLSVTVQGKVFERCELARTLKRLGMDGYRGISLANWMCLAKWESGYNTRATNYNAGDRSTDYGIFQINSRYWCNDGKTPGAVNACHLSCSALLQDNIADAVACAKRVVRDPQGIRAWNAWRNRCQNRDVRQYVQGCGV	64	108	109

Same assay, conditions: Homo sapiens; pH 3.04; Thermal; DSC; Gly-HCl 0.05 M; structure 1LZ1; whole UniProt chain shown

Variant	Tm [°C]	unfolding enthalpy (calorimetric) [kcal/mol]	unfolding enthalpy (van 't Hoff) [kcal/mol]
MKALIVLGLVLLSVTVQGKVFERCELARTLKRLGMDGYRGISLANWMCLAKWESGYNTRATNYNAGDRSTDYGIFQINSRYWCNDGKTPGAVNACHLSCSALLQDNIADAVACAKRVVRDPQGIRAWNAWRNRCQNRDVRQYVQGCGV	70.6	118	118

Same assay, conditions: Homo sapiens; pH 3.13; Thermal; DSC; Gly-HCl 0.05 M; structure 1LZ1; whole UniProt chain shown

Variant	Tm [°C]	unfolding enthalpy (calorimetric) [kcal/mol]	unfolding enthalpy (van 't Hoff) [kcal/mol]
MKALIVLGLVLLSVTVQGKVFERCELARTLKRLGMDGYRGISLANWMCLAKWESGYNTRATNYNAGDRSTDYGIFQINSRYWCNDGKTPGAVNACHLSCSALLQDNIADAVACAKRVVRDPQGIRAWNAWRNRCQNRDVRQYVQGCGV	71.7	120	122
